B1: Mitogen-activated protein kinase kinase 1 (Arabidopsis thaliana (Mouse-ear cress)), Q94A06 (parent)
chain: MNRGSLCPNPICLPPLEQSISKFLTQSGTFKDGDLRVNKDGIQTVSLSEPGAPPPIEPLDNQLSLADLEVIKVIGKGSSGNVQLVKHKLTQQFFALKVIQLNTEESTCRAISQELRINLSSQCPYLVSCYQSFYHNGLVSIILEFMDGGSLADLLKKVGKVPENMLSAICKRVLRGLCYIHHERRIIHRDLKPSNLLINHRGEVKITDFGVSKILTSTSSLANSFVGTYPYMSPERISGSLYSNKSDIWSLGLVLLECATGKFPYTPPEHKKGWSSVYELVDAIVENPPPCAPSNLFSPEFCSFISQCVQKDPRDRKSAKELLEHKFVKMFEDSDTNLSAYFTDAGSLIPPLAN
partner: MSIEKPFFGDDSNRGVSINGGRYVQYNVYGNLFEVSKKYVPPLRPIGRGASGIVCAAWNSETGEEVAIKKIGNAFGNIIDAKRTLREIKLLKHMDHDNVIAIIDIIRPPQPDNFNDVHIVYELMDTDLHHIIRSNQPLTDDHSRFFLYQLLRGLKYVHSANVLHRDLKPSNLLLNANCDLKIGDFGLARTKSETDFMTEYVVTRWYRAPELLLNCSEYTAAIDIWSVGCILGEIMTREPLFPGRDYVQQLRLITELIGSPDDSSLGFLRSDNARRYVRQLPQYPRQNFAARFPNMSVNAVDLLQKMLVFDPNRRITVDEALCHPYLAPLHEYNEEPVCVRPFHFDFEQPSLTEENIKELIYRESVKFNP
B2: Mitogen-activated protein kinase kinase 2 (Arabidopsis thaliana (Mouse-ear cress)), Q9S7U9 (parent)
chain: MKKGGFSNNLKLAIPVAGEQSITKFLTQSGTFKDGDLRVNKDGVRIISQLEPEVLSPIKPADDQLSLSDLDMVKVIGKGSSGVVQLVQHKWTGQFFALKVIQLNIDEAIRKAIAQELKINQSSQCPNLVTSYQSFYDNGAISLILEYMDGGSLADFLKSVKAIPDSYLSAIFRQVLQGLIYLHHDRHIIHRDLKPSNLLINHRGEVKITDFGVSTVMTNTAGLANTFVGTYNYMSPERIVGNKYGNKSDIWSLGLVVLECATGKFPYAPPNQEETWTSVFELMEAIVDQPPPALPSGNFSPELSSFISTCLQKDPNSRSSAKELMEHPFLNKYDYSGINLASYFTDAGSPLATLGNLSGTFSV
partner: B1 partner
B3: Mitogen-activated protein kinase kinase 2 (Arabidopsis thaliana (Mouse-ear cress)), Q9S7U9 (parent)
chain: B2 chain
partner: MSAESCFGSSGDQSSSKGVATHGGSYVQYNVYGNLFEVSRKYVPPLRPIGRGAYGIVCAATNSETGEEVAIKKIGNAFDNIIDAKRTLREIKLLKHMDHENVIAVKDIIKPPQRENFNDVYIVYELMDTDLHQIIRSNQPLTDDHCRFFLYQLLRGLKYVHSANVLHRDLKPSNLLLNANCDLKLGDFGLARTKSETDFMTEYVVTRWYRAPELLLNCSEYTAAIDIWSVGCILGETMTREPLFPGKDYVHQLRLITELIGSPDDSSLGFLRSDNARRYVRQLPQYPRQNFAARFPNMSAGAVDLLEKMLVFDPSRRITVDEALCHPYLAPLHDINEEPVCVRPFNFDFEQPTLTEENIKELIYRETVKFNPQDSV
B4: Mitogen-activated protein kinase kinase 2 (Arabidopsis thaliana (Mouse-ear cress)), Q9S7U9 (parent)
chain: B2 chain

Variants of: B1
Details: with mpk11_arath MPK11, Q9LMM5

Row | Variant | effect of a mutation on the interaction
1 | MNRGSLCPNPICLPPLEQSISKFLTQSGTFKDGDLRVNKDGIQTVSLSEPGAPPPIEPLDNQLSLADLEVIKVIGKGSSGNVQLVKHKLTQQFFALKVIQLNTEESTCRAISQELRINLSSQCPYLVSCYQSFYHNGLVSIILEFMDGGSLADLLKKVGKVPENMLSAICKRVLRGLCYIHHERRIIHRDLKPSNLLINHRGEVKITDFGVSKILTSTSSLANDFVGTYPYMSPERISGSLYSNKSDIWSLGLVLLECATGKFPYTPPEHKKGWSSVYELVDAIVENPPPCAPSNLFSPEFCSFISQCVQKDPRDRKSAKELLEHKFVKMFEDSDTNLSAYFTDAGSLIPPLAN [S224D] | increasing interaction
2 | MNRGSLCPNPICLPPLEQSISKFLTQSGTFKDGDLRVNKDGIQTVSLSEPGAPPPIEPLDNQLSLADLEVIKVIGKGSSGNVQLVKHKLTQQFFALKVIQLNTEESTCRAISQELRINLSSQCPYLVSCYQSFYHNGLVSIILEFMDGGSLADLLKKVGKVPENMLSAICKRVLRGLCYIHHERRIIHRDLKPSNLLINHRGEVKITDFGVSKILTSESSLANSFVGTYPYMSPERISGSLYSNKSDIWSLGLVLLECATGKFPYTPPEHKKGWSSVYELVDAIVENPPPCAPSNLFSPEFCSFISQCVQKDPRDRKSAKELLEHKFVKMFEDSDTNLSAYFTDAGSLIPPLAN [T218E] | increasing interaction

Variants of: B2
Details: with mpk11_arath MPK11, Q9LMM5

Row | Variant | effect of a mutation on the interaction
3 | MKKGGFSNNLKLAIPVAGEQSITKFLTQSGTFKDGDLRVNKDGVRIISQLEPEVLSPIKPADDQLSLSDLDMVKVIGKGSSGVVQLVQHKWTGQFFALKVIQLNIDEAIRKAIAQELKINQSSQCPNLVTSYQSFYDNGAISLILEYMDGGSLADFLKSVKAIPDSYLSAIFRQVLQGLIYLHHDRHIIHRDLKPSNLLINHRGEVKITDFGVSTVMTNTAGLANEFVGTYNYMSPERIVGNKYGNKSDIWSLGLVVLECATGKFPYAPPNQEETWTSVFELMEAIVDQPPPALPSGNFSPELSSFISTCLQKDPNSRSSAKELMEHPFLNKYDYSGINLASYFTDAGSPLATLGNLSGTFSV [T226E] | increasing interaction
4 | MKKGGFSNNLKLAIPVAGEQSITKFLTQSGTFKDGDLRVNKDGVRIISQLEPEVLSPIKPADDQLSLSDLDMVKVIGKGSSGVVQLVQHKWTGQFFALKVIQLNIDEAIRKAIAQELKINQSSQCPNLVTSYQSFYDNGAISLILEYMDGGSLADFLKSVKAIPDSYLSAIFRQVLQGLIYLHHDRHIIHRDLKPSNLLINHRGEVKITDFGVSTVMTNDAGLANTFVGTYNYMSPERIVGNKYGNKSDIWSLGLVVLECATGKFPYAPPNQEETWTSVFELMEAIVDQPPPALPSGNFSPELSSFISTCLQKDPNSRSSAKELMEHPFLNKYDYSGINLASYFTDAGSPLATLGNLSGTFSV [T220D] | increasing interaction

Variants of: B3
Details: with mpk4_arath MPK4, Q39024

Row | Variant | effect of a mutation on the interaction
5 | MKKGGFSNNLKLAIPVAGEQSITKFLTQSGTFKDGDLRVNKDGVRIISQLEPEVLSPIKPADDQLSLSDLDMVKVIGKGSSGVVQLVQHKWTGQFFALKVIQLNIDEAIRKAIAQELKINQSSQCPNLVTSYQSFYDNGAISLILEYMDGGSLADFLKSVKAIPDSYLSAIFRQVLQGLIYLHHDRHIIHRDLKPSNLLINHRGEVKITDFGVSTVMTNDAGLANTFVGTYNYMSPERIVGNKYGNKSDIWSLGLVVLECATGKFPYAPPNQEETWTSVFELMEAIVDQPPPALPSGNFSPELSSFISTCLQKDPNSRSSAKELMEHPFLNKYDYSGINLASYFTDAGSPLATLGNLSGTFSV [T220D] | increasing interaction
6 | MKKGGFSNNLKLAIPVAGEQSITKFLTQSGTFKDGDLRVNKDGVRIISQLEPEVLSPIKPADDQLSLSDLDMVKVIGKGSSGVVQLVQHKWTGQFFALKVIQLNIDEAIRKAIAQELKINQSSQCPNLVTSYQSFYDNGAISLILEYMDGGSLADFLKSVKAIPDSYLSAIFRQVLQGLIYLHHDRHIIHRDLKPSNLLINHRGEVKITDFGVSTVMTNTAGLANEFVGTYNYMSPERIVGNKYGNKSDIWSLGLVVLECATGKFPYAPPNQEETWTSVFELMEAIVDQPPPALPSGNFSPELSSFISTCLQKDPNSRSSAKELMEHPFLNKYDYSGINLASYFTDAGSPLATLGNLSGTFSV [T226E] | increasing interaction

Variants of: B4
Details: with mpk6_arath MPK6, Q39026
Sequence of mpk6_arath MPK6, Q39026 (Q39026 whole entry): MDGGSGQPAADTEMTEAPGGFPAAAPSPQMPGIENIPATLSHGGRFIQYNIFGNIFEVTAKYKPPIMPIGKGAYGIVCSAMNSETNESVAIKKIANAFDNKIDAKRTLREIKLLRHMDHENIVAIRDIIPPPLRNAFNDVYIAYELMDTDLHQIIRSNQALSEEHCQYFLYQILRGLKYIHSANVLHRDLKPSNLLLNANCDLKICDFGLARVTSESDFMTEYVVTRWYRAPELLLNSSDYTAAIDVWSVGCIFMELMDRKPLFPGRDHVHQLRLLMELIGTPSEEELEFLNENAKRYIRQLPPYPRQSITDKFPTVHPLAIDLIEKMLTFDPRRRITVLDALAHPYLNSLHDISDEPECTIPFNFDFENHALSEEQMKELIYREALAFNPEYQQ

Row | Variant | effect of a mutation on the interaction
7 | MKKGGFSNNLKLAIPVAGEQSITKFLTQSGTFKDGDLRVNKDGVRIISQLEPEVLSPIKPADDQLSLSDLDMVKVIGKGSSGVVQLVQHKWTGQFFALKVIQLNIDEAIRKAIAQELKINQSSQCPNLVTSYQSFYDNGAISLILEYMDGGSLADFLKSVKAIPDSYLSAIFRQVLQGLIYLHHDRHIIHRDLKPSNLLINHRGEVKITDFGVSTVMTNDAGLANTFVGTYNYMSPERIVGNKYGNKSDIWSLGLVVLECATGKFPYAPPNQEETWTSVFELMEAIVDQPPPALPSGNFSPELSSFISTCLQKDPNSRSSAKELMEHPFLNKYDYSGINLASYFTDAGSPLATLGNLSGTFSV [T220D] | increasing interaction

Variants of: B4
Details: with mpk10_arath MPK10, Q9M1Z5
Sequence of mpk10_arath MPK10, Q9M1Z5 (Q9M1Z5 whole entry): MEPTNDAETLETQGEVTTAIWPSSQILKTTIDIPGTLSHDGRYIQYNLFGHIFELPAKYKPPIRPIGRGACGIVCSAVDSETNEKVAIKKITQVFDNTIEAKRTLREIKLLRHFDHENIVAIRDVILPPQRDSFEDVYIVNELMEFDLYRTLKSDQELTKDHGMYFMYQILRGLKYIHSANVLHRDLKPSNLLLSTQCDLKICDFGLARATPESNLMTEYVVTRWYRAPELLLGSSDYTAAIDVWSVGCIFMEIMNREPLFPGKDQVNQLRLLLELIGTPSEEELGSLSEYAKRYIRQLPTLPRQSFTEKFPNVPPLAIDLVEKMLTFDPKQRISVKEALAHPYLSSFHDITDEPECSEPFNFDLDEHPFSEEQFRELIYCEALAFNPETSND

Row | Variant | effect of a mutation on the interaction
8 | MKKGGFSNNLKLAIPVAGEQSITKFLTQSGTFKDGDLRVNKDGVRIISQLEPEVLSPIKPADDQLSLSDLDMVKVIGKGSSGVVQLVQHKWTGQFFALKVIQLNIDEAIRKAIAQELKINQSSQCPNLVTSYQSFYDNGAISLILEYMDGGSLADFLKSVKAIPDSYLSAIFRQVLQGLIYLHHDRHIIHRDLKPSNLLINHRGEVKITDFGVSTVMTNDAGLANTFVGTYNYMSPERIVGNKYGNKSDIWSLGLVVLECATGKFPYAPPNQEETWTSVFELMEAIVDQPPPALPSGNFSPELSSFISTCLQKDPNSRSSAKELMEHPFLNKYDYSGINLASYFTDAGSPLATLGNLSGTFSV [T220D] | increasing interaction

Variants of: B4
Details: with mpk13_arath MPK13, Q9LQQ9
Sequence of mpk13_arath MPK13, Q9LQQ9 (Q9LQQ9 whole entry): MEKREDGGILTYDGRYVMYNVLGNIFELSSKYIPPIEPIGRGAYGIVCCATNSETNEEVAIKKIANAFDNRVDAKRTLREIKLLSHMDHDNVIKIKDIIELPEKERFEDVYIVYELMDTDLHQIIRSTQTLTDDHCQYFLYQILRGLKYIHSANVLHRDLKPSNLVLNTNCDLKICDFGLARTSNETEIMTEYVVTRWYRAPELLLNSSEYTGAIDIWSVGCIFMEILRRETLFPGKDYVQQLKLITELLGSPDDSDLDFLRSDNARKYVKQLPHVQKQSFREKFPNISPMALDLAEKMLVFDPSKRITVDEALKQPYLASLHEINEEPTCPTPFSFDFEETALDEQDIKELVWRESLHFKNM

Row | Variant | effect of a mutation on the interaction
9 | MKKGGFSNNLKLAIPVAGEQSITKFLTQSGTFKDGDLRVNKDGVRIISQLEPEVLSPIKPADDQLSLSDLDMVKVIGKGSSGVVQLVQHKWTGQFFALKVIQLNIDEAIRKAIAQELKINQSSQCPNLVTSYQSFYDNGAISLILEYMDGGSLADFLKSVKAIPDSYLSAIFRQVLQGLIYLHHDRHIIHRDLKPSNLLINHRGEVKITDFGVSTVMTNDAGLANTFVGTYNYMSPERIVGNKYGNKSDIWSLGLVVLECATGKFPYAPPNQEETWTSVFELMEAIVDQPPPALPSGNFSPELSSFISTCLQKDPNSRSSAKELMEHPFLNKYDYSGINLASYFTDAGSPLATLGNLSGTFSV [T220D] | increasing interaction
